Test [1] addresses fluorescence recovery protein (FRP, Slr1964) of Synechocystis sp. PCC 6803, His6-tagged (Synechocystis sp. PCC 6803) (UniProt P74103). Kind of test: native MS.
For test [2], the target named is T1, orange carotenoid protein (OCP) of Synechocystis sp. PCC 6803 (Synechocystis sp. PCC 6803), P74102.
T1 chain: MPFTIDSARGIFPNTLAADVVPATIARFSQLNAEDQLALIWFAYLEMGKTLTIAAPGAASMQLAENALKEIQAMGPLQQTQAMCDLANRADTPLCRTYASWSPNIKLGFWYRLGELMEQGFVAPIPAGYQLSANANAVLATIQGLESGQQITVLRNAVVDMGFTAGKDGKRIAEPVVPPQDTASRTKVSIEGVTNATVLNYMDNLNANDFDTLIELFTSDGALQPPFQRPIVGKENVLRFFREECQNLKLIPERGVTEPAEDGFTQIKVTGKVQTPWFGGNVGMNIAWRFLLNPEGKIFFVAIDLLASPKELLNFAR
Put plainly: native MS. Particulars: remark: other sources report otherwise.

As a reminder, the stoichiometry N is a count of units in the complex or per binding partner.

“fluorescence recovery protein (FRP, Slr1964) of Synechocystis sp. PCC 6803, His6-tagged (from UniProt P74103 2-109) (natural protein)” gave a stoichiometry N in test [1] of 2.

B1: orange carotenoid protein (OCP) of Synechocystis sp. PCC 6803, P74102 1-317 (natural protein)
chain: T1 chain
B1 registered a stoichiometry N in test [2] of 2.

The values above are taken from publication PMC5369232.
